Measurements reported in patent EP4768503A1 (Keymed Biosciences (Chengdu) Co., Ltd., dated 2026).
Where a chain is given by its changes, count along the chain named. Where no end group is shown, it is not given here. [ ]: non-standard residue; d: D form. pGlu = O=C1CC[C@@H](C(=O)O)N1

B1: 6B5 H1K2 hIgG1 (antibody, V domains shown)
VH: QVQLVQSGAEVKKPGASVKVSCKASGYTFTTYWMHWVRQAPGQGLEWIGEIDPSDSYTNYNQKFKGRATLTVDKSSSTAYMELSSLRSEDTAVYYCARSFHGNFFVYWGQGTLVTVSS
VL: EIVLTQSPATLSLSPGERATLSCRASSSVSYMHWFQQKPGQAPRLLIYSTSNLATGIPARFSGSGSGTDYTLTISRLEPEDFAVYYCQQRSSYPLTFGQGTKLEIK
notes: also called h6B5 H1 + h6B5 K2
B2: 6B5 H1K5 hIgG1 (antibody, V domains shown)
VH: B1 VH
VL: DIQMTQSPSSLSASVGDRVTITCRASSSVSYMHWFQQKPGKAPKLLIYSTSNLASGVPSRFSGSGSGTDYTLTISSLQPEDFATYYCQQRSSYPLTFGQGTKLEIK
notes: also called h6B5 H1 + h6B5 K5
B3: 6B5 H1K1 hIgG1 (antibody, V domains shown)
VH: B1 VH
VL: B1 VL with L46W, T55S
notes: also called h6B5 H1 + h6B5 K1
B4: 6B5 H1K3 hIgG1 (antibody, V domains shown)
VH: B1 VH
VL: B1 VL with N52S, L53R
notes: also called h6B5 H1 + h6B5 K3
B5: 6B5 H1K6 hIgG1 (antibody, V domains shown)
VH: B1 VH
VL: B2 VL with N52S, A54Q
notes: also called h6B5 H1 + h6B5 K6
B6: 6B5 H1K4 hIgG1 (antibody, V domains shown)
VH: B1 VH
VL: B2 VL with M4L, L46W
notes: also called h6B5 H1 + h6B5 K4
B7: 7C8 H2K2 hIgG1 (antibody, V domains shown)
VH: QVTLKESGPALVKPTQTLTLTCTFSGFSLSTSGMGVSWIRQPPGKALEWLAHIYWDDDKRYNPSLKSRLTITKDTSKNQVVLTMTNMDPVDTATYYCARYGKGFAYWGQGTLVTVSS
VL: DIVMTQSPLSLPVTPGEPASISCRSSQSIVHSNGNTYLDWYLQKPGQSPQLLIYKVSNRFSGVPDRFSGSGSGTDFTLKISRVEAEDVGVYYCFQGSHVPLTFGQGTKLEIK
notes: also called h7C8 H2 + h7C8 K2
B8: 7C8 H6K2 hIgG1 (antibody, V domains shown)
VH: QVQLQESGPGLVKPSETLSLTCTFSGFSISTSGMGVSWIRQPPGKGLEWIGHIYWDDDKRYNPSLKSRVTISKDTSKNQVSLKLSSVTAADTAVYYCARYGKGFAYWGQGTLVTVSS
VL: B7 VL
notes: also called h7C8 H6K2 hIgG1; h7C8 H6K2
B9: 7C8 H6K1 hIgG1 (antibody, V domains shown)
VH: B8 VH
VL: B7 VL with I2V, D39E, Q50K
notes: also called h7C8 H6 + h7C8 K1
B10: 7C8 H4K2 hIgG1 (antibody, V domains shown)
VH: B8 VH with I29L, I50L, G51A, K77R
VL: B7 VL
notes: also called h7C8 H4 + h7C8 K2
B11: 7C8 H2K1 hIgG1 (antibody, V domains shown)
VH: B7 VH
VL: B7 VL with I2V, D39E, Q50K
notes: also called h7C8 H2 + h7C8 K1
B12: 7C8 H7K1 hIgG1 (antibody, V domains shown)
VH: B8 VH with F24V
VL: B7 VL with I2V, D39E, Q50K
notes: also called h7C8 H7 + h7C8 K1
B13: 7C8 H7K2 hIgG1 (antibody, V domains shown)
VH: B8 VH with F24V
VL: B7 VL
notes: also called h7C8 H7 + h7C8 K2
B14: 7C8 H5K2 hIgG1 (antibody, V domains shown)
VH: B8 VH with I29L, G51A
VL: B7 VL
notes: also called h7C8 H5 + h7C8 K2
B15: 193D22 (antibody, V domains shown)
VH: EVKLVESGGGLVKPGGSLKLSCAASGFAFSSYDMSWVRQTPEKRLEWVATISNGGSYTYYPDSVKGRFSISRDNARNTLYLQMSSLRSEDTALYYCARHPLYYGNYGWWYFDVWGAGTTVTVSS
VL: DVVMTQTPLSLPVSLGDQASISCRSSQSLVYSNGNTYLYWYLQKPGQSPKLLIYKVSNRFSGVPDRFSGSGSGTDFTLKISRVEAEDLGVYFCSQSTHVPLTFGAGTKLELK
notes: Chimeric antibody; the constant region of the chimeric form is not specified
B16: 193M7 (antibody, V domains shown)
VH: B15 VH with N53S, G54R, S56T, S69T, D73N, W108Y
VL: B15 VL with Y31H, N33D, T36I
notes: as for B15
B17: 171P1 (antibody, V domains shown)
VH: QVQLEQPGAVSVRPGASVKLSCKASGYTFTSYWINWVKQRPGQGLEWIGNIYPSDSYTHYNQKFKDKATLTVDKSSTTAYMQISSPTSEDSAVYYCTREGTVVYWGQGTLLTVSA
VL: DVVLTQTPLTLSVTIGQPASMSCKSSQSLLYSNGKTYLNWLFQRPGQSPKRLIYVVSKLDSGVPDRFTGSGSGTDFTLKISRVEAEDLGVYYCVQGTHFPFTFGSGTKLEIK
notes: as for B15
B18: 178D4 (antibody, V domains shown)
VH: QVQLQQSGAELVKPGASVKLSCKASGYTFTSYDLNWVRQRPEQGLEWIGWTFPGDGRTKYNEKFKGKATLTTDKSSSTAYMHLSRLTSEDSAVYFCVRWDYYGRSTGYFDVWGAGTTVTVSS
VL: QIVLTQSPAIMSASLGERVTMTCTASSSVSSSYLHWYQQRPGSSPKLWIYGTSNLASGVPARFSGSGSGTSYSLTISSMEAEDAATYYCHQYHRSPLTFGAGTKLELK
notes: as for B15
B19: 174J17 (antibody, V domains shown)
VH: EVQLVESGGGLVKPGGSLKLSCAASGFTLSDYYMYWVRQTPEKRLEWVATISDGGRYTYYPDSVKGRFTISRDIAKNNLYIQMSSLRSEDTAMYYCARGRSTMITTTRNYLALDYWGQGTSVTVSS
VL: DIQMTQSSSSFSVSVGDRVTVTCKASEDIYNRLAWYQQRPGNAPRLLISGATSLETGVPSRFSGSGSGKDYILSITSLQTEDVGTYYCQQYWRTPLTFGEGTKLELK
notes: as for B15
B20: 175P19 (antibody, V domains shown)
VH: EVMLVESGRDLVKPGGSLRLSCAASGFTFSTYAMSWIRQTPEKRLEWVATITSAGTYTYYPDSVKGRFTISRDNAKNTLYLQMRSLRSEDTAMYYCVRHELITTVVSTDYFSMDYWGQGTSVTVSS
VL: DIVLTQSPASLAVSLGQRATISCRASESVEYYGTSLMQWYQQKPGQPPKLLIYAASNVESGVPARFSGSGSGTDFSLNIHPVEEDDVAMYFCQQSRKVPLTFGAGTKLELK
notes: as for B15
B21: 185O18 (antibody, V domains shown)
VH: B20 VH with R19K, S53N, A54Y
VL: B20 VL with Y31D
notes: Chimeric antibody; also called 185018
B22: 192E15 (antibody, V domains shown)
VH: EVKLVESGGGLVQPGGSRKLSCAASGFTFSDYGMAWVRQAPGKGPEWVAFISNLAYSIYYADTVTGRFTISRQNAKNTLYLEMSSLRSEDTAMYYCARDRGYDGHSPYYAMDYWGQGTSVTVSS
VL: QAVVTQESALTTSPGETVTLTCRSSTGAVTTSNYANWVQEKPDHLFTGLIGGTSNRPPGVPARFSGSLIGDKAALTITGAQTEDEAIYFCALWYSHHWVFGGGTKLTVL
notes: as for B15
B23: 200O1 H1K1 (antibody, V domains shown)
VH: QVTLKESGPVLVKPTETLTLTCTVSGFSLSRYIVHWYRQPPGKALEWLAMIWGGGRIDYNSALKSRLTISKDNSKSQVVLTMTNMDPVDTATYYCARNFGENAEAYWGQGTLVTVSS
VL: DIQMTQSPSSLSASVGDRVTITCRASQDINIYLNWYQQKPGKVVKLLIYYTSRLHSGVPSRFSGSGSGTDFTLTISSLQPEDVATYFCQQGHTLPYTFGQGTKLEIK
notes: also called h200O1 H1K1 hIgG1; h200O1 H1K1
B24: 200O1 H5K1 (antibody, V domains shown)
VH: QVQLQESGPGLVKPSETLSLTCTVSGFSLSRYIVHWYRQPPGKGLEWIGMIWGGGRIDYNSALKSRVTISKDNSKSQVSLKLSSVTAADTAVYYCARNFGENAEAYWGQGTLVTVSS
VL: B23 VL
notes: also called h200O1 H5 + h200O1 K1
B25: 200O1 H2K1 (antibody, V domains shown)
VH: B23 VH with N73T
VL: B23 VL
notes: also called h200O1 H2 + h200O1 K1
B26: 200O1 H6K1 (antibody, V domains shown)
VH: B24 VH with N73T, S76N
VL: B23 VL
notes: also called h200O1 H6 + h200O1 K1
B27: 151N5 H1K1 (antibody, V domains shown)
VH: EVQLVESGGGLVKPGGSLRLSCAASGFTFSDFYMYWVRQAPGKGLEWVATISDGGRYTYYPDRLKGRFTISRDIAKNSLYLQMNSLRAEDTAVYYCARGRSTMITTTRNYFALDYWGQGTLVTVSS
VL: DIQMTQSPSSLSASVGDRVTITCKASEDIYNRLAWYQQKPGKAPKLLISGATSLETGVPSRFSGSGSGKDYTLTISSLQPEDIATYYCQQYWRTPLTFGQGTKLEIK
notes: also called h151N5 H1 + h151N5 K1
B28: 151N5 H1K2 (antibody, V domains shown)
VH: B27 VH
VL: B27 VL with I83V
notes: also called h151N5 H1 + h151N5 K2

These binders were tested against T1, Aβ1-42 protofibril (human) (assay: SPR (Biacore T200), protofibril on CM5 chip, antibody as analyte).
T1 construct: also called amyloid protofibril
T1 sequence (peptide, as listed by the source): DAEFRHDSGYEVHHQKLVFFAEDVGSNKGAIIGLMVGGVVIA

Q: How did the Kd turn out when B1 was run?
A: 2.11 nM

Q: And the koff?
A: 0.00361 s⁻¹

Q: And the kon?
A: 1.71e+06 M⁻¹ s⁻¹

Q: Which Kd does the source give for B2 here?
A: 1.87 nM

Q: And the koff?
A: 0.00354 s⁻¹

Q: What about the kon of the same binder?
A: 1.9e+06 M⁻¹ s⁻¹

Q: How did the Kd turn out when B3 was run?
A: 1.7 nM

Q: And the koff?
A: 0.00255 s⁻¹

Q: And the kon?
A: 1.49e+06 M⁻¹ s⁻¹

Q: B4 was tested. Which Kd did it give?
A: 1.42 nM

Q: And the koff?
A: 0.00404 s⁻¹

Q: What about the kon of the same binder?
A: 2.85e+06 M⁻¹ s⁻¹

Q: B5 was tested. Which Kd did it give?
A: 1.64 nM

Q: And the koff?
A: 0.00401 s⁻¹

Q: And the kon?
A: 2.44e+06 M⁻¹ s⁻¹

Q: How did the Kd turn out when B6 was run?
A: 1.6 nM

Q: And the koff?
A: 0.00229 s⁻¹

Q: And the kon?
A: 1.43e+06 M⁻¹ s⁻¹

Q: For B7, which Kd is on record?
A: 2.76 nM

Q: What about the koff of the same binder?
A: 0.00293 s⁻¹

Q: What about the kon of the same binder?
A: 1.06e+06 M⁻¹ s⁻¹

Q: With B8 as the binder, how does the Kd read?
A: 2.8 nM

Q: And the koff?
A: 0.0041 s⁻¹

Q: What about the kon of the same binder?
A: 1.46e+06 M⁻¹ s⁻¹

Q: Which Kd does the source give for B9 here?
A: 2.63 nM

Q: And the koff?
A: 0.00472 s⁻¹

Q: What about the kon of the same binder?
A: 1.79e+06 M⁻¹ s⁻¹

Q: B10 was tested. Which Kd did it give?
A: 3.08 nM

Q: And the koff?
A: 0.0037 s⁻¹

Q: And the kon?
A: 1.2e+06 M⁻¹ s⁻¹

Q: How did the Kd turn out when B11 was run?
A: 2.74 nM

Q: And the koff?
A: 0.0028 s⁻¹

Q: And the kon?
A: 1.02e+06 M⁻¹ s⁻¹

Q: B12 was tested. Which Kd did it give?
A: 1.93 nM

Q: And the koff?
A: 0.00466 s⁻¹

Q: What about the kon of the same binder?
A: 2.42e+06 M⁻¹ s⁻¹

Q: How did the Kd turn out when B13 was run?
A: 2.33 nM

Q: And the koff?
A: 0.00415 s⁻¹

Q: What about the kon of the same binder?
A: 1.78e+06 M⁻¹ s⁻¹

Q: How did the Kd turn out when B14 was run?
A: 2.95 nM

Q: And the koff?
A: 0.00395 s⁻¹

Q: What about the kon of the same binder?
A: 1.34e+06 M⁻¹ s⁻¹

What follows are binders tested against T2, pyroE Aβ3-42 peptide (human, pyroglutamate derived from glutamic acid at the third amino acid position of Aβ (N-terminus of the peptide)) (assay: graded binding, chimeric antibody (assay not named; ELISA in Example 1)).
T2 construct: Synthetic peptide; It lacks the first two N-terminal residues of Aβ; also called pyroglutamate-modified β-amyloid
T2 sequence (peptide, as listed by the source): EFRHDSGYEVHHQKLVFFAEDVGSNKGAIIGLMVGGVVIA

Q: Does B15 bind?
A: binds

Q: Does B16 bind?
A: binds

Q: Does B17 bind?
A: binds

Q: Does B18 bind?
A: binds

Q: Does B19 bind?
A: binds

Q: Does B20 bind?
A: binds

Q: Does B21 bind?
A: binds

Q: Does B22 bind?
A: binds

Biological target: T3, pyroE Aβ3-16-biotin polypeptide (human, also: biotin, position not given here)
T3 peptide: [pGlu]FRHDSGYEVHHQK
Assay: SPR (Biacore T200), biotinylated peptide on SA chip, antibody as analyte; antigen channel not given

Q: Which results are given for B23?
A: Kd: 0.0011 pM; kon: 682000 M⁻¹ s⁻¹

Q: What does the source list for B24?
A: Kd: 0.0736 pM; koff: 5.7e-08 s⁻¹; kon: 776000 M⁻¹ s⁻¹

Q: Which results are given for B25?
A: Kd: 0.625 pM; koff: 2.38e-07 s⁻¹; kon: 381000 M⁻¹ s⁻¹

Q: Which results are given for B26?
A: Kd: 0.61 pM; koff: 4.55e-07 s⁻¹; kon: 747000 M⁻¹ s⁻¹

Q: Which Kd does the source give for B27 here?
A: 321 pM

Q: And the koff?
A: 0.0002 s⁻¹

Q: What about the kon of the same binder?
A: 622000 M⁻¹ s⁻¹

Q: Which Kd does the source give for B28 here?
A: 319 pM

Q: And the koff?
A: 0.000207 s⁻¹

Q: What about the kon of the same binder?
A: 648000 M⁻¹ s⁻¹
